Earlier results as cited in PMC5414288, “^99mTc-radiolabeled GE11-modified peptide for ovarian tumor targeting” (DARU Journal of Pharmaceutical Sciences, 2017).

Target: EGFR (Homo sapiens) (UniProt P00533)

For GE11, the Kd is listed as 22 nM.
